Test results taken from patent US20130281314A1 (Genentech, published 2013).

Biological target: T1, Wildtype ubiquitin (human, UniProt P0CG48 1-76)
T1 construct: also called wt; not shown: N-terminal 6xHis tag of the pET derivative vector
Assay: biolayer interferometry, USP14catC114A on sensors, steady state fit

Kd: 100 µM
B1: USP14catC114A (enzyme, UniProt P54578 91-494, looked up)
chain: DMTEEQLASAMELPCGLTNLGNTAYMNATVQCIRSVPELKDALKRYAGALRASGEMASAQYITAALRDLFDSMDKTSSSIPPIILLQFLHMAFPQFAEKGEQGQYLQQDANECWIQMMRVLQQKLEAIEDDSVKETDSSSASAATPSKKKSLIDQFFGVEFETTMKCTESEEEEVTKGKENQLQLSCFINQEVKYLFTGLKLRLQEEITKQSPTLQRNALYIKSSKISRLPAYLTIQMVRFFYKEKESVNAKVLKDVKFPLMLDMYELCTPELQEKMVSFRSKFKDLEDKKVNQQPNTSDKKSSPQKEVKYEPFSFADDIGSNNCGYYDLQAVLTHQGRSSSSGHYVSWVKRKQDEWIKFDDDKVSIVTPEDILRLSGGGDWHIAYVLLYGPRRVEIMEEESEQ
modifications: monobiotinylated at the C-terminal Avi tag
notes: range 91-494; N-terminal His tag removed with TEV protease; also called catalytic domain of USP14 (residues D91-Q494) with a C114A mutation; not shown: C-terminal Avi tag
